Measured values reported in the supplement of paper PMC10567573.

B1: IQUB (parent)
chain: KIREKEEWIKLDYHRRHNPKTNED

Variants of: B1
Experiment: protein stability index of a GFP-peptide fusion (GPS, HEK-293T) (PSI 1-6); higher = more stable
Conditions: c terminus: a fixed tail appended
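Also: lentivirally expressed fusions sorted by FACS into six bins by GFP to DsRed ratio, PSI derived from sequencing read proportions per bin multiplied by bin number.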

| Variant | protein stability index |
| --- | --- |
| KIREYEEWIKLDYHRRHNPKTNED [K5Y] | 3.92 |
| KIREKEVWIKLDYHRRHNPKTNED [E7V] | 3.99 |
| KIREKETWIKLDYHRRHNPKTNED [E7T] | 4.37 |
| KIREKECWIKLDYHRRHNPKTNED [E7C] | 4.61 |
| KIREKEYWIKLDYHRRHNPKTNED [E7Y] | 3.31 |
| KIREKEFWIKLDYHRRHNPKTNED [E7F] | 3.34 |
| KIREKEPWIKLDYHRRHNPKTNED [E7P] | 3.6 |
| KIREKERWIKLDYHRRHNPKTNED [E7R] | 3.51 |
| KIREKEWWIKLDYHRRHNPKTNED [E7W] | 3.46 |
| KIREKEMWIKLDYHRRHNPKTNED [E7M] | 3.27 |
| KIREKEIWIKLDYHRRHNPKTNED [E7I] | 3.36 |
| KIREKELWIKLDYHRRHNPKTNED [E7L] | 2.68 |
| KIREKEAWIKLDYHRRHNPKTNED [E7A] | 4.74 |
| KIREKENWIKLDYHRRHNPKTNED [E7N] | 4.45 |
| KIREKEGWIKLDYHRRHNPKTNED [E7G] | 3.8 |
| KIREKEKWIKLDYHRRHNPKTNED [E7K] | 4.03 |
| KIREKEDWIKLDYHRRHNPKTNED [E7D] | 4.48 |
| KIREKEHWIKLDYHRRHNPKTNED [E7H] | 4.34 |
| KIREKESWIKLDYHRRHNPKTNED [E7S] | 4.46 |
| KIREKEQWIKLDYHRRHNPKTNED [E7Q] | 4.19 |
| KIREKEEWIKADYHRRHNPKTNED [L11A] | 4.77 |
| KIREKEEWQKLDYHRRHNPKTNED [I9Q] | 5.24 |
| KIREKEEWPKLDYHRRHNPKTNED [I9P] | 4.94 |
| KIREKEEWDKLDYHRRHNPKTNED [I9D] | 5.22 |

| Variant | protein stability index |
| --- | --- |
| KIREKEEWSKLDYHRRHNPKTNED [I9S] | 4.62 |
| KIREKEEWCKLDYHRRHNPKTNED [I9C] | 4.12 |
| KIREKEEWLKLDYHRRHNPKTNED [I9L] | 4.66 |
| KIREKEEWEKLDYHRRHNPKTNED [I9E] | 5.25 |
| KIREKEEWYKLDYHRRHNPKTNED [I9Y] | 4.73 |
| KIREKEEWKKLDYHRRHNPKTNED [I9K] | 5.13 |
| KIREKEEWTKLDYHRRHNPKTNED [I9T] | 5.1 |
| KIREKEEWGKLDYHRRHNPKTNED [I9G] | 5.35 |
| KIREKEEWAKLDYHRRHNPKTNED [I9A] | 5.24 |
| KIREKEEWNKLDYHRRHNPKTNED [I9N] | 5.07 |
| KIREKEEWHKLDYHRRHNPKTNED [I9H] | 4.45 |
| KIREKEEWFKLDYHRRHNPKTNED [I9F] | 3.96 |
| KIREKEEWVKLDYHRRHNPKTNED [I9V] | 4.86 |
| KIREKEEWMKLDYHRRHNPKTNED [I9M] | 4.75 |
| KIREKEEPIKLDYHRRHNPKTNED [W8P] | 5.25 |
| KIREKEEKIKLDYHRRHNPKTNED [W8K] | 5.19 |
| KIREKEERIKLDYHRRHNPKTNED [W8R] | 4.91 |
| KIREKEECIKLDYHRRHNPKTNED [W8C] | 4.93 |
| KIREKEEQIKLDYHRRHNPKTNED [W8Q] | 5.58 |
| KIREKEEEIKLDYHRRHNPKTNED [W8E] | 4.69 |
| KIREKEETIKLDYHRRHNPKTNED [W8T] | 5.19 |
| KIREKEENIKLDYHRRHNPKTNED [W8N] | 5.03 |
| KIREKEEDIKLDYHRRHNPKTNED [W8D] | 5.13 |
| KIREKEEYIKLDYHRRHNPKTNED [W8Y] | 5.13 |

| Variant | protein stability index |
| --- | --- |
| KIREKEEAIKLDYHRRHNPKTNED [W8A] | 5.18 |
| KIREKEEIIKLDYHRRHNPKTNED [W8I] | 4.24 |
| KIREKEEHIKLDYHRRHNPKTNED [W8H] | 4.99 |
| KIREKEELIKLDYHRRHNPKTNED [W8L] | 4.94 |
| KIREKEEFIKLDYHRRHNPKTNED [W8F] | 4.24 |
| KIREKEESIKLDYHRRHNPKTNED [W8S] | 5.41 |
| KIREKEEGIKLDYHRRHNPKTNED [W8G] | 5.54 |
| KIREKEEMIKLDYHRRHNPKTNED [W8M] | 5.1 |
| KIREKEEVIKLDYHRRHNPKTNED [W8V] | 5.07 |
| KIREKNEWIKLDYHRRHNPKTNED [E6N] | 4.52 |
| KIREKMEWIKLDYHRRHNPKTNED [E6M] | 3.69 |
| KIREKHEWIKLDYHRRHNPKTNED [E6H] | 3.98 |
| KIREKDEWIKLDYHRRHNPKTNED [E6D] | 4.31 |
| KIREKTEWIKLDYHRRHNPKTNED [E6T] | 4.41 |
| KIREKAEWIKLDYHRRHNPKTNED [E6A] | 3.32 |
| KIREKGEWIKLDYHRRHNPKTNED [E6G] | 3.96 |
| KIREKREWIKLDYHRRHNPKTNED [E6R] | 4.66 |
| KIREKCEWIKLDYHRRHNPKTNED [E6C] | 4.35 |
| KIREKKEWIKLDYHRRHNPKTNED [E6K] | 3.98 |
| KIREKPEWIKLDYHRRHNPKTNED [E6P] | 3.58 |
| KIREKYEWIKLDYHRRHNPKTNED [E6Y] | 2.88 |
| KIREKVEWIKLDYHRRHNPKTNED [E6V] | 3.63 |
| KIREKQEWIKLDYHRRHNPKTNED [E6Q] | 4.47 |
| KIREKSEWIKLDYHRRHNPKTNED [E6S] | 4.03 |

| Variant | protein stability index |
| --- | --- |
| KIREKWEWIKLDYHRRHNPKTNED [E6W] | 2.61 |
| KIREKLEWIKLDYHRRHNPKTNED [E6L] | 2.7 |
| KIREKFEWIKLDYHRRHNPKTNED [E6F] | 3.56 |
| KIREKEEWIGLDYHRRHNPKTNED [K10G] | 4.9 |
| KIREKEEWIPLDYHRRHNPKTNED [K10P] | 5.26 |
| KIREKEEWIYLDYHRRHNPKTNED [K10Y] | 4.31 |
| KIREKEEWINLDYHRRHNPKTNED [K10N] | 4.48 |
| KIREKEEWIWLDYHRRHNPKTNED [K10W] | 3.17 |
| KIREKEEWISLDYHRRHNPKTNED [K10S] | 4.68 |
| KIREKEEWIQLDYHRRHNPKTNED [K10Q] | 4.74 |
| KIREKEEWIVLDYHRRHNPKTNED [K10V] | 4.2 |
| KIREKEEWIHLDYHRRHNPKTNED [K10H] | 4.56 |
| KIREKEEWIALDYHRRHNPKTNED [K10A] | 4.65 |
| KIREKEEWIRLDYHRRHNPKTNED [K10R] | 4.92 |
| KIREKEEWIMLDYHRRHNPKTNED [K10M] | 4.67 |
| KIREKEEWICLDYHRRHNPKTNED [K10C] | 4.15 |
| KIREKEEWIFLDYHRRHNPKTNED [K10F] | 4.68 |
| KIREKEEWIDLDYHRRHNPKTNED [K10D] | 4.99 |
| KIREKEEWITLDYHRRHNPKTNED [K10T] | 4.97 |
| KIREKEEWIELDYHRRHNPKTNED [K10E] | 5.3 |
| KIREKEEWIILDYHRRHNPKTNED [K10I] | 4.16 |
| KIREKEEWILLDYHRRHNPKTNED [K10L] | 4.04 |
